Measurements published in patent US10281476B2, “Methods to identify modulators of RyR calcium channels” (REGENTS OF THE UNIVERSITY OF MINNESOTA, priority 2013, dated 2019).

Tests used:
RyR2 [1] = target: T1, RyR2 (Rattus norvegicus, UniProt B0LPN4); test: Fluorescent FKBP12.6 binding at the Z-line of permeabilized myocytes; design: These fluorescent proteins were added to saponin-permeabilized myocytes with or without pre-equilibration with saturating DPc10 concentration; endogenous in cells; host or cells: saponin-permeabilized rat ventricular myocytes
Method: These fluorescent proteins were added to saponin-permeabilized myocytes with or without pre-equilibration with saturating DPc10 concentration. […] We also did this with high [CaM] (500 nmol/L) that saturates RyR2 with CaM under control conditions (without DPc10; FIG. 17C). […] To test whether DPc10 and CaM bind at the same or nearby RyR2 sites, we measured FRET between CaM and DPc10.
FKBP12.6 can bind to and stabilize RyR2 channel gating, but details are controversial (Bers et al., Circ Res. 2012; 110:796-799). We measured the effect of H2O2 on FKBP12.6-RyR2 binding affinity in saponin-permeabilized myocytes using F-FKBP (Yang et al., Circ Res. 2014; 114:295-306; Cornea et al., Proc Natl Acad Sci USA. 2009; 106:6128-6133; Guo et al., Circ Res. 2010; 106:1743-1752; Guo et al., Biophys J. 2011; 101:2170-2177; Cornea et al., J Biol Chem. 2010; 285:19219-19226). […] We used 1 nmol/L F-FKBP (the its Kd) (Guo et al., Circ Res. 2010; 106:1743-1752), because at half-saturation it would be very sensitive to either an increase or decrease in RyR2 binding.
Target sequence in this assay (B0LPN4 whole entry): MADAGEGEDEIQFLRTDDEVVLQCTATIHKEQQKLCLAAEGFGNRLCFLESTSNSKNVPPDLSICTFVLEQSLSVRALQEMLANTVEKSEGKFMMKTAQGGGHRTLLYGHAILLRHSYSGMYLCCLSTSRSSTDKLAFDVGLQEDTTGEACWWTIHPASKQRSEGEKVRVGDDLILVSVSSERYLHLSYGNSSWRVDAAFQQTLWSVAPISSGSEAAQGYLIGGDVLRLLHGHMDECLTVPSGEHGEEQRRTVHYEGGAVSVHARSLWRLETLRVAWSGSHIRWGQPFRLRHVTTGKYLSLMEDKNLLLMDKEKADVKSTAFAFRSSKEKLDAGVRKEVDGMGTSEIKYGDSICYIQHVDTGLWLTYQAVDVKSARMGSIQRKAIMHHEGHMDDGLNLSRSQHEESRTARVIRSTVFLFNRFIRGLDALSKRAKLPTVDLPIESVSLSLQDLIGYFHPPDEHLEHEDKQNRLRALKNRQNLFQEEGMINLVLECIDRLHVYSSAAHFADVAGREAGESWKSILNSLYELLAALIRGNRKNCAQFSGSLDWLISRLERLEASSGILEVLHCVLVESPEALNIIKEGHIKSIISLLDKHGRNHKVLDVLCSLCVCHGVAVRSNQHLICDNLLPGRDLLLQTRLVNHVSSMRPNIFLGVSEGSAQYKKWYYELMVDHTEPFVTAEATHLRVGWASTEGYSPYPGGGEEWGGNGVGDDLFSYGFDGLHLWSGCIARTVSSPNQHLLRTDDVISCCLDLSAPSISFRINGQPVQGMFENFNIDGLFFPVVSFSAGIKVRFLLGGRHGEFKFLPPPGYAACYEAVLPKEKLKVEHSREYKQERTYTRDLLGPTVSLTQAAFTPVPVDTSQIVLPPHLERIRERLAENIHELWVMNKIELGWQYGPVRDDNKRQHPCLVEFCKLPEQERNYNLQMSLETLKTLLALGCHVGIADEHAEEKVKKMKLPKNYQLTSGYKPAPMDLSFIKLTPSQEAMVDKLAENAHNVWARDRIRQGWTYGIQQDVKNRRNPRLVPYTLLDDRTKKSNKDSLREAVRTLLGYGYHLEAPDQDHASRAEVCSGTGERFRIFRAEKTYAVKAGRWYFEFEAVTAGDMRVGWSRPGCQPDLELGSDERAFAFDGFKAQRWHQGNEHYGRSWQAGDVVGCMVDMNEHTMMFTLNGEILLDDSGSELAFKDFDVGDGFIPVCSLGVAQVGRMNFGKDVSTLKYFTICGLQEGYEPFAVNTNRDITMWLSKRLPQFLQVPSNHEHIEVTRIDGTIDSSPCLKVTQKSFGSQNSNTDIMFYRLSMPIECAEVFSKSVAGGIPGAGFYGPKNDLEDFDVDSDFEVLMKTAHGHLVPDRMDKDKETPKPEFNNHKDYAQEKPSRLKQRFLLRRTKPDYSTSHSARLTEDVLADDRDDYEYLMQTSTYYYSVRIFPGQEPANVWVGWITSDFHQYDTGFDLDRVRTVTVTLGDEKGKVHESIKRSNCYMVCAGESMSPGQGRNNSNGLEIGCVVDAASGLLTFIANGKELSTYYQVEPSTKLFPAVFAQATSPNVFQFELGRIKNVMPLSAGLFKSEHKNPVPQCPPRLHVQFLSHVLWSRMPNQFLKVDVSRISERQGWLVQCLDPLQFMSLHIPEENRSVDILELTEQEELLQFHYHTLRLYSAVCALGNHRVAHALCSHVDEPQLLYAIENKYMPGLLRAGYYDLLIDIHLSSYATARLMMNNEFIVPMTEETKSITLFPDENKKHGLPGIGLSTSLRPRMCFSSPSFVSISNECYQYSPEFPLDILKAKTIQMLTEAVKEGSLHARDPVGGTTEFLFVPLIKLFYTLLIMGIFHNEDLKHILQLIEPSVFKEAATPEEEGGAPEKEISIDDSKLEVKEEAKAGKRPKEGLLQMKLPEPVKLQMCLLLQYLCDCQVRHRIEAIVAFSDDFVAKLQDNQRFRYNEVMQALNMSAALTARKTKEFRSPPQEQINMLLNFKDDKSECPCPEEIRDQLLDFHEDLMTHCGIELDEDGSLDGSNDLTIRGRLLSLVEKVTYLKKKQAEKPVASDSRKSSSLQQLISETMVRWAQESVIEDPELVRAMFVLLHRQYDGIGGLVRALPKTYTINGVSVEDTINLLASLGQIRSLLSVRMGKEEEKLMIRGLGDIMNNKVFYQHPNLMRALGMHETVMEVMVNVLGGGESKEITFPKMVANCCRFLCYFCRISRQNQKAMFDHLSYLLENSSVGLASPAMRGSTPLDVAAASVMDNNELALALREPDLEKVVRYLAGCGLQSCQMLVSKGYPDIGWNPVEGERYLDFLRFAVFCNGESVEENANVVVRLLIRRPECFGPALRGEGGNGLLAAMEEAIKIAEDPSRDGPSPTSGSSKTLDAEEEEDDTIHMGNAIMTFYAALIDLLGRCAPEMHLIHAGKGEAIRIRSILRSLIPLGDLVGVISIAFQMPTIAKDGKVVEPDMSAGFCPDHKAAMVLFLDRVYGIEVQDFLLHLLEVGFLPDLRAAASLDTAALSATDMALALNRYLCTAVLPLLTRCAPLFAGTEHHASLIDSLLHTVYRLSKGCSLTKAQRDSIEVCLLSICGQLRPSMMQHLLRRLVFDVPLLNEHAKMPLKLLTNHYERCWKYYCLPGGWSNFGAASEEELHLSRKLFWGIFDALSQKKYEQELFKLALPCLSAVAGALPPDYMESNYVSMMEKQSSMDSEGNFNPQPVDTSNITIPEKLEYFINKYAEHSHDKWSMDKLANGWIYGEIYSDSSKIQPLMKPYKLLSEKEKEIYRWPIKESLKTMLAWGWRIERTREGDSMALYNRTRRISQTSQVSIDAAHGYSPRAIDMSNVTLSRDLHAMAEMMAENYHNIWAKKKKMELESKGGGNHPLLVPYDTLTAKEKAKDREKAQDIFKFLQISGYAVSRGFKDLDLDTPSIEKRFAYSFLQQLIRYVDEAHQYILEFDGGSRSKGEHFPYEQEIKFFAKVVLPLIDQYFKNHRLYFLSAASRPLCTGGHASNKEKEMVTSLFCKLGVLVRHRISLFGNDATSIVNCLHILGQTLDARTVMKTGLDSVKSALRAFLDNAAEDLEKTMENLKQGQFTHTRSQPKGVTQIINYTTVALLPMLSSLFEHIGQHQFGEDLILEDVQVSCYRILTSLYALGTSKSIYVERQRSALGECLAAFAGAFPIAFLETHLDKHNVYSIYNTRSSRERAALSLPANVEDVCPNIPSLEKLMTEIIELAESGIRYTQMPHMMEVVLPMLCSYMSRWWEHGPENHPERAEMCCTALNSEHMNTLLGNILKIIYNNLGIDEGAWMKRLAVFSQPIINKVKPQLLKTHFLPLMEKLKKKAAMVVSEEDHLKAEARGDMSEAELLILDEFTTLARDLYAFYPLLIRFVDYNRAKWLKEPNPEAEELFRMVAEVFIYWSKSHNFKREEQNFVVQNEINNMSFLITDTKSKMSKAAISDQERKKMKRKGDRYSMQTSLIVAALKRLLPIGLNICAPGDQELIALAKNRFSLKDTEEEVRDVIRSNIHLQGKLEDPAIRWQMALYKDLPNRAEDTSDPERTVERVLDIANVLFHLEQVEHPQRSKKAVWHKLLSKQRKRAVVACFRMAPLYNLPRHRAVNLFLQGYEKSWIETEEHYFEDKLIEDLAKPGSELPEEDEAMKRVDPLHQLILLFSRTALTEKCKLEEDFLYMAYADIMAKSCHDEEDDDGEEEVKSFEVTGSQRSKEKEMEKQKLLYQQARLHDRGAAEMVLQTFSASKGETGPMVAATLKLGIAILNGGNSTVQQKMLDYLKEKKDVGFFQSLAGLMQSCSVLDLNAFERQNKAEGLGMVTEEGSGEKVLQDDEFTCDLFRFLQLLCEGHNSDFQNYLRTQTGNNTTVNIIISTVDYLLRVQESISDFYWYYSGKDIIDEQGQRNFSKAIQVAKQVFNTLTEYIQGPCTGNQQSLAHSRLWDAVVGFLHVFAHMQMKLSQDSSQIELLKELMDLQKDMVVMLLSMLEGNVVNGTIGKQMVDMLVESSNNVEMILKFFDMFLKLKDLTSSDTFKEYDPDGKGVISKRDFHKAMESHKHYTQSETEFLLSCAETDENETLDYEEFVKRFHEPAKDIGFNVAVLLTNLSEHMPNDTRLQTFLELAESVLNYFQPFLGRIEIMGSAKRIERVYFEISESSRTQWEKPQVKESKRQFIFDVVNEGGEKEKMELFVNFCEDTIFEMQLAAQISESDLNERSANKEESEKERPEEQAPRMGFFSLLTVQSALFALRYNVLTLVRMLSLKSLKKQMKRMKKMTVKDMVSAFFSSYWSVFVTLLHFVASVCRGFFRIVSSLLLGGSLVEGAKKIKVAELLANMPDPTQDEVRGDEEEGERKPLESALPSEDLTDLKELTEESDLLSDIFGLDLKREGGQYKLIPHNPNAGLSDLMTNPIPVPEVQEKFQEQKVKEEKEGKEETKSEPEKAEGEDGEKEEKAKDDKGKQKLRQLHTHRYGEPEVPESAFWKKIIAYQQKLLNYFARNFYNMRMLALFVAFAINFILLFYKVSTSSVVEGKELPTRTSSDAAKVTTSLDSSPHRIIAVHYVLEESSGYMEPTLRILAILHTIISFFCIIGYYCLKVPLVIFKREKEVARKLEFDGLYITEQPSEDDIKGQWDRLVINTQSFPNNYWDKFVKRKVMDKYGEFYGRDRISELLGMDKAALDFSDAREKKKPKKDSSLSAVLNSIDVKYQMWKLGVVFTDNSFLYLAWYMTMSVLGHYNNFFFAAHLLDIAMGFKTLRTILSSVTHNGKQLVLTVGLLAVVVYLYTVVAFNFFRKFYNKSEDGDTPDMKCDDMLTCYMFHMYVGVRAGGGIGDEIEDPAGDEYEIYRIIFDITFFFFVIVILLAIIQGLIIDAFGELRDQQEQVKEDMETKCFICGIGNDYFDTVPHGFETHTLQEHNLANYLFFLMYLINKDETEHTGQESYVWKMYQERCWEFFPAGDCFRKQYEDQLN
Target sequence in this assay (P68106 with tags, fused parts or gaps T15C/C23A/C77I partner): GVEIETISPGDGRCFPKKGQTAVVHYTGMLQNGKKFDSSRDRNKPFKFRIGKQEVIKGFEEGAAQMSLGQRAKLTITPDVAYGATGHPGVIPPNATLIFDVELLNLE

RyR2 [2] = target: T1, RyR2; design: These fluorescent proteins were added to saponin-permeabilized myocytes with or without pre-equilibration with saturating DPc10 concentration; endogenous in cells; host or cells: saponin-permeabilized rat ventricular myocytes; conditions: cited from earlier work
Target sequence in this assay (B0LPN4 whole entry): as the sequence (B0LPN4 whole entry) above
Target sequence in this assay (P68106 with tags, fused parts or gaps T15C/C23A/C77I partner): as the sequence (P68106 with tags, fused parts or gaps T15C/C23A/C77I partner) above

[3] = tested on: permeabilized cardiomyocytes; test: Ca2+ sparks and SR Ca2+ content in permeabilized myocytes; assay type: cell-based, rat; conditions: 5 μmol/L DPc10 with 1 μmol/L CaM or 100 nmol/L FKBP12.6
Method: Myocytes were permeabilized with saponin (50μg/mL) for 60 seconds and placed in internal solution composed of EGTA 0.5 mmol/L; HEPES 10 mmol/L; Kaspartate 120 mmol/L; ATP 5 mmol/L; free MgCl2 1 mmol/L, reduced glutathione 10 mmol/L; and free [Ca2+] 50nmol/L (calculated using MaxChelator), creatine phosphokinase 5 U/mL, phosphocreatine 10 mmol/L, dextran 4% Fluo-4 0.025 mmol/L, pH 7.2. Ca2+sparks were recorded by a laser scanning confocal microscope (RADIANCE2000™ MP, Bio-Rad, UK) as previously described (Li et al., Circ Res, 2002; 90:309-316). Fluo-4 was excited at 488 nm and emission was recorded using 500/530 nm bandpass filter. To assess SR Ca2+content, caffeine (15 mmol/L) was rapidly perfused. Ca2+spark were analyzed as using SparkMaster (Picht et al., Am J Physiol Cell Physiol, 2007; 293:C1073-C1081).
Next, we asked whether RyR2 is activated by DPc10 and whether FKBP12.6 or CaM can prevent this. We assessed Ca^2+ sparks in permeabilized myocytes perfused with internal solution containing 50 nmol/L free Ca^2+ plus 1 μmol/L autocamtide-2-related inhibitory peptide (to inhibit CaMKII activity). Line-scan images were recorded after 3-hour incubations under control conditions and in the presence of 5 μmol/L DPc10, with or without 1 μmol/L CaM or 100 nmol/L FKBP12.6 (FIG. 14D).

RyR2 [4] = target: T1, RyR2; test: F-DPc10 wash-in and washout kinetics at the myocyte Z-line; assay type: binding; design: endogenous in cells; host or cells: saponin-permeabilized adult rat ventricular myocytes
Method: To characterize DPc10-binding kinetics at Z-lines, we performed F-DPc10 wash-in (500 nmol/L) and washout experiments in permeabilized myocytes (FIG. 10A). Association (τwash-in=79.0±3.2 minutes) and dissociation (τwashout=149.8±4.4 minutes) were very slow compared with similar FKBP12.6 measurements (Guo et al., Circ Res, 2010; 106:1743-1752). From the wash-in/washout measurements, we calculated the association and dissociation rates constants, kon and koff, respectively, according to the following equation: kwash-in=[F-DPc10]kon+koff where kwashout≈koff and k=1/τ (s^−1). Accordingly, kon=202±20 (L mol^−1 s^−1) and koff=0.11±0.01 (10^−3 s^−1). […] We repeated this kinetic analysis using FRET between FKBP12.6 and DPc10, thus assessing the RyR2-specific DPc10 binding (FIG. 11A AND 11B). […] Based on these kinetic and affinity analyses, we infer that most of the Z-line-specific DPc10 binding is to RyR2. This is also consistent with Bmax, which would imply ≈1 DPc10 per RyR2 monomer.
We were intrigued by the slow kwash-in and conducted measurements to further understand the basis of this slow association. We tested the hypothesis that at resting [Ca^2+]i, DPc10 access to its RyR2 binding site is sterically hindered. If the N-terminal and central domains are tightly zipped to each other, then this interaction may occlude the DPc10-binding site on the RyR2, thus limiting the kon for DPc10. Alternatively, a limiting factor may be the rate at which DPc10 adopts a conformation that can bind to RyR2. To discern between these mechanisms, we determined the effect of [F-DPc10] on τwash-in. If the small fraction of DPc10 in the right conformation limits binding rate, then τwash-in should be faster at higher [F-DPc10], according to Equation. […] Instead, a 10-fold increase in [F-DPc10] had no significant effect on the τwash-in, although it did increase Bmax (FIG. 10B). The same was seen when using FKBP12.6-DPc10 FRET to assess τwash-in with 0.5 vs 5 μmol/L HF647-DPc10 (FIG. 12A AND 12B).
In our working model, under resting conditions, the RyR2 closed state may be stabilized by the interaction between the N-terminal and central domain in the zipped state. We hypothesized that conditions that promote RyR2 opening might enhance the rate of unzipping and accelerate τwash-in for F-DPc10. To test this, we first monitored F-DPc10 wash-in at elevated Ca^2+ (500 nmol/L). However, the 13% faster mean τwash-in was not significant (FIG. 13A). […] Thus, we preincubated myocytes with ryanodine (100 μmol/L) plus caffeine ([…]), which are known to favor long RyR2 openings and were reported to cause RyR2 domain unzipping in HEK293 cells (Liu et al., J Cell Sci, 2010; 123: 1775-1784). Ryanodine+caffeine produced a 21% faster τwash-in (P=0.002; FIG. 13B). However, the most significant effect was seen after presaturating RyR2 with NF-DPc10 (and then NF-DPc10 washout with F-DPc10 present; FIG. 13A). […] Assuming that koff of NF-DPc10 is the same as for F-DPc10 and using Equation, the kon is increased by 3.2-fold by unzipping as a result of prebinding of NF-DPc10 to the RyR2. Our working hypothesis is that the RyR2 open state may increase the probability of an RyR2 shifting to the unzipped state and may allow faster F-DPc10 wash-in. It also seems that the RyR2 open state (favored by caffeine-ryanodine) differs from the unzipped state (bound with DPc10).
Both FKBP12.6 and CaM bind to the RyR2 and can reduce channel opening, which might alter DPc10 binding. […] Neither CaM nor FKBP12.6 pretreatment altered M-line F-DPc10 fluorescence (FIG. 15). […] We infer that CaM stabilizes the domain interaction between N-terminal and central domains in the zipped state and thereby may reduce DPc10 access to its binding site. To test for direct CaM-DPc10 interaction, we performed control FRET measurements between donor-labeled CaM and acceptor-labeled DPc10 in solution in the absence of RyR. The maximal FRET efficiency (<1%) ruled out direct CaM-DPc10 interaction. […]
Target sequence in this assay (B0LPN4 whole entry): as the sequence (B0LPN4 whole entry) above

RyR2 [5] = target: RyR2 (Homo sapiens, UniProt Q92736); conditions: cited from earlier work
RyR1 = RyR1 (Homo sapiens, UniProt P21817); conditions: cited from earlier work
[6] = saturation of RyR2 with CaM 1 μmol/L or FKBP12.6 100 nmol/L, F-DPc10 5 μmol/L

Substance	Bmax for FKBP12.6, reanalyzed using FZ-FM (RyR2 [1])	Bmax of FKBP12.6, previous measurements (RyR2 [2]; cell average fluorescence)	Kd (RyR2 [2]; read-out: Kd of FKBP12.6 for RyR2)	effect on CaSpF activation by DPc10 [3]	effect on F-DPc10 binding (RyR2 [4]; 200-minute incubation with F-DPc10, pretreatment CaM 1 μmol/L or FKBP12.6 100 nmol/L)	effect on Bmax for F-DPc10 (RyR2 [4]; [6])	effect on τwash-in of F-DPc10 (RyR2 [4]; [6])	lower affinity than FKBP12.6 (RyR2 [5])	lower binding affinity (RyR1)
FKBP12.6: FK506-binding protein 12.6	1.3 µmol/L	≈ 1 μmol/L	~1 nM	only slightly decreased	did not alter	did not alter	did not alter		
FKBP12: FK506-binding protein isoform FKBP12								~100 fold	~4 fold
